Source: PMC2424011
Values belong to the molecule of their own block, whether it stands above or below them.

Experiments:
[1] = target: mouse recombinant sFRP-3 (R&D) (mouse) (UniProt P97401); experiment: other fluorescence titration; competition: 250 nM native EGF added to 25 nM EGFAlexa488 prior to 100 nM sFRP-3, in PBS; spectrum of Alexa488, peak at 517 nm
Alexa488-conjugated EGF = experiment: as above

decrease of the EGFAlexa488 absorbance value at the emission peak when native EGF was added before sFRP-3 [1]: 7 units
Molecule: recombinant mouse EGF (ligand)

decrease of the EGFAlexa488 absorbance value at the emission peak (Alexa488-conjugated EGF): 10 units
B1: mouse recombinant sFRP-3 (R&D) (natural protein)
chain: AACEPVRIPLCKSLPWNMTKMPNHLHHSTQANAILAMEQFEGLLGTHCSPDLLFFLCAMYAPICTIDFQHEPIKPCKSVCERARQGCEPILIKYRHSWPESLACDELPVYDRGVCISPEAIVTADGADFPMDSSTGHCRGASSERCKCKPVRATQKTYFRNNYNYVIRAKVKEVKMKCHDVTAVVEVKEILKASLVNIPRDTVNLYTTSGCLCPPLTVNEEYVIMGYEDEERSRLLLVEGSIAEKWKDRLGKKVKRWDMKLRHLGLGKTDASDSTQNQKSGRNSNPRPARS
